Assays:
[1] = target: T1, chymase (native, human skin mast cell) (Homo sapiens, UniProt P23946 P23946:22-247); test: inhibition; angiotensin I substrate; second G of GGGG 2'-OMe; details: tags: Calbiochem Human Skin
T1 sequence: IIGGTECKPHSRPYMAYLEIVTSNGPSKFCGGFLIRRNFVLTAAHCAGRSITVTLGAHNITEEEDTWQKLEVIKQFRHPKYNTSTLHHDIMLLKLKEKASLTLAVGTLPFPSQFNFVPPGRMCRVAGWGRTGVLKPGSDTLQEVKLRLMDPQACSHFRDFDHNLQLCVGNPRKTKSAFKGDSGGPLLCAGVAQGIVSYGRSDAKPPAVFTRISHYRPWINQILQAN
Procedure: (§1) The total volume of solution for an enzyme reaction in the assay was set to 50 μL, and the reaction was performed in solution C buffer. At first, native (manufactured by Calbiochem) was diluted with solution C to give 5 μL thereof. Here, the native is chymase purified from human skin mast cell. The nucleic acid was serially diluted with solution C at a concentration of 0.0027-2 μM to give 25 μL thereof. The chymase solution (5 μL) and the nucleic acid solution (25 μL) were mixed, and the mixture was incubated at 37° C. for 5 min. On the other hand, […] angiotensin I (manufactured by PEPTIDE […], INC.) was prepared in solution C to give 20 μL thereof, which was incubated at 37° C. for 5 min. […] The whole mixture was centrifuged at 4° C., 14000 rpm for 10 min, and the supernatant (30 μL) was used for the next fluorescence induction reaction.
(§2) The above-mentioned supernatant (30 μL) was added to a 96 well plate (black, manufactured by Costar), a solution (15 μL) of 2% o-phthalaldehyde (manufactured by SIGMA) in methanol and 0.3M NaOH solution (170 μL) were added to each well, and the mixture was incubated at room temperature for 10 min. […] The plate was set on a microplate reader SpectraMax190 (manufactured by Molecular device) and the fluorescence intensity was measured at an excitation wavelength of 355 nm and a fluorescence wavelength of 460 nm. […]

[2] = target: T2, chymase (recombinant, SIGMA) (UniProt P23946 P23946:22-247); test: inhibition; Suc-AAPF-MCA substrate, 0.005 ug chymase, single measurement; details: tags: SIGMA recombinant
T2 sequence: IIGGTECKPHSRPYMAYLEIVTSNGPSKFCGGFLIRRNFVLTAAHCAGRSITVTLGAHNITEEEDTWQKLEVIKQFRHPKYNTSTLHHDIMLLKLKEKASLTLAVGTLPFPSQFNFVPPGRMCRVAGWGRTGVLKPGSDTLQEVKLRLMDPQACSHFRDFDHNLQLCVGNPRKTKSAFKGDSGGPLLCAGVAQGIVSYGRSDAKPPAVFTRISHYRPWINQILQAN
Procedure: (§3) The assay was performed using a 96-well plate (F16 Black Maxisorp Fluoronunc, manufactured by Nunc), with a reaction mixture volume of 100 μL, in solution C as a buffer solution. Here, the solution C is a mixed solution of 145 mM sodium chloride, 5.4 mM potassium chloride, 1.8 mM calcium chloride, 0.8 mM magnesium chloride, 20 mM Tris (pH 7.6), and 0.05% Tween20. First, nucleic acid was serially diluted in solution C to obtain 50 μL solutions. After 10 μL of the 1 mM substrate prepared in solution C was added thereto, the plate was set to the microplate reader SpectraMax190 (manufactured by Molecular Devices Corporation), and incubated at 37° C. for 5 minutes. Separately, 0.05 μg of chymase (recombinant, manufactured by SIGMA) was diluted in solution C to obtain a 40 μL chymase solution, and incubated at 37° C. for 5 minutes. The chymase solution was added to the mixture of the nucleic acid and substrate to initiate an enzyme reaction. The final chymase concentration in the reaction mixture was 16.7 nM, the final substrate concentration being 100 μM. The plate containing the reaction mixture was set to the microplate reader SpectraMax190 (manufactured by Molecular Devices Corporation), and examined for time-dependent changes in the fluorescence intensity at 37° C. for 5 minutes (or 30 minutes) (excitation wavelength 380 nm, detection wavelength 460 nm). A linear approximation of the increase in the fluorescence of the AMC released from the substrate by chymase activity was generated, and its slope was taken as the initial velocity […]. For control, samples were treated and analyzed in the same manner in two cases: use of a 30N (a nucleotide of 30 consecutive bases represented by N; N is A, G, C or T) nucleic acid pool (negative control), and use of chymostatin, a known chymotrypsin-like serine protease inhibitor (positive control). Taking the initial reaction velocity without the nucleic acid and inhibitor (V₀) as a 100% enzyme activity, the inhibitory rate of each test substance was calculated using the following equation: […]
In the evaluation of SEQ ID NO: 21-25, a method similar to the evaluation method of inhibitory activity against chymase shown in Example 1 by using MCA as a substrate except that the amount chymase was changed from 0.05 μg to 0.005 μg was used for measurement.

[3] = target: T2, chymase (recombinant, SIGMA); test: inhibition; Suc-AAPF-MCA substrate, 37 C, 1.8 mM Ca, 0.8 mM Mg, pH 7.6; details: tags: SIGMA recombinant
Procedure: By detecting the fluorescence of this AMC, the enzyme activity of chymase can be determined. The assay was performed using a 96-well plate (F16 Black Maxisorp Fluoronunc, manufactured by Nunc), with a reaction mixture volume of 100 μL, in solution C as a buffer solution. Here, the solution C is a mixed solution of 145 mM sodium chloride, 5.4 mM potassium chloride, 1.8 mM calcium chloride, 0.8 mM magnesium chloride, 20 mM Tris (pH 7.6), and 0.05% Tween20. First, nucleic acid was serially diluted in solution C to obtain 50 μL solutions. After 10 μL of the 1 mM substrate prepared in solution C was added thereto, the plate was set to the microplate reader SpectraMax190 (manufactured by Molecular Devices Corporation), and incubated at 37° C. for 5 minutes. […] The plate containing the reaction mixture was set to the microplate reader SpectraMax190 (manufactured by Molecular Devices Corporation), and examined for time-dependent changes in the fluorescence intensity at 37° C. for 5 minutes (or 30 minutes) (excitation wavelength 380 nm, detection wavelength 460 nm). A linear approximation of the increase in the fluorescence of the AMC released from the substrate by chymase activity was generated, and its slope was taken as the initial velocity […]. […]

[4] = target: T2, chymase (recombinant, SIGMA); test: inhibition; Suc-AAPF-MCA substrate, 37 C; details: tags: SIGMA recombinant
Procedure: as §3, with “By detecting the fluorescence of this AMC, the enzyme activity of chymase can be determined. The assay” for “The assay”

[5] = target: T1, chymase (native, human skin mast cell); test: inhibition; angiotensin I substrate; table prints length 32 though SEQ 33 is 31 nt; details: tags: Calbiochem Human Skin
Procedure: The total volume of solution for an enzyme reaction in the assay was set to 50 μL, and the reaction was performed in solution C buffer. At first, native (manufactured by Calbiochem) was diluted with solution C to give 5 μL thereof. Here, the native is chymase purified from human skin mast cell. The nucleic acid was serially diluted with solution C at a concentration of 0.0027-2 μM to give 25 μL thereof. The chymase solution (5 μL) and the nucleic acid solution (25 μL) were mixed, and the mixture was incubated at 37° C. for 5 min. On the other hand, […] angiotensin I (manufactured by PEPTIDE […], INC.) was prepared in solution C to give 20 μL thereof, which was incubated at 37° C. for 5 min. The angiotensin I solution was added to a mixture of chymase and nucleic acid to start an enzyme reaction. The final chymase concentration of the reaction solution was 0.5 nM, and the final substrate concentration was 50 μM. After reaction at 37° C. for 90 min, ice-cooled 30% trichloroacetic acid solution (25 μL) was added to quench the reaction. The whole mixture was centrifuged at 4° C., 14000 rpm for 10 min, and the supernatant (30 μL) was used for the next fluorescence induction reaction.

[6] = target: T1, chymase (native, human skin mast cell); test: inhibition; angiotensin I substrate; second G of GGGG 2'-OMe; details: tags: Calbiochem Human Skin; remark: listed apart in the source
Procedure: as §1, §2

[7] = target: T1, chymase (native, human skin mast cell); test: inhibition; angiotensin I substrate, 37 C; details: tags: Calbiochem Human Skin
Procedure: as §1, §2

B1: SEQ ID NO: 17(1) (ssRNA)
RNA: GAUGAUCGGACAUAACAUUGUUGGGGUGUCAA
modifications: GAU(F)GAU(F)C(F)GGAC(F)AU(F)AAC(F)AU(F)U(F)GU(F)U(F)G(M)G(M)GGU(F)GU(F)C(F)AA (F=2'-F, M=2'-OMe)
Work on B1 yielded an IC50 [1] of 44.4 nM.

B2: SEQ ID NO: 17(3) (ssRNA)
RNA: GAUGAUCGGACAUAACAUUGUUGGGGUGUCAA
modifications: idT-G(M)A(M)U(F)G(M)A(M)U(F)C(F)G(M)G(M)A(M)C(F)A(M)U(F)AAC(F)AU(F)U(F)G(M)U(F)U(F)GG(M)G(M)G(M)U(F)G(M)U(F)C(F)A(M)A(M)-idT (F=2'-F, M=2'-OMe)
B2 showed an IC50 [1] of 5.66 nM.

B3: SEQ ID NO: 21 (ssRNA)
RNA: GGCAGAUGAUCGGACAUAACAGGUUAGAUAGAGUUAAAAACCUGGGGUGUCAA
modifications: 2'-F pyrimidines (inferred)
For B3, the IC50 [2] was 5.7 nM.

B4: SEQ ID NO: 1 (ssRNA)
RNA: GGGAGCAGGAGAGAGGUCAGAUGAGCAUGCUUUUUGGUAACCGAUAAUGGGGGCCUAUGCGUGCUAGUGUGA
modifications: 2'-F pyrimidines (U, C); purines 2'-OH
B4 gave an IC50 [3] of 41 nM.

B5: SEQ ID NO: 6 (ssRNA)
RNA: GGGAGCAGGAGAGAGGUCAGAUGUCAUGACUUAUAGGUAACCGAUAAUGGGGGCCUAUGCGUGCUAGUGUGA
modifications: 2'-F pyrimidines (U, C); purines 2'-OH
Binder B5 has an IC50 [4] of 5.5 nM.

AUGAUCGGACAUAACUAAUUAGGGGUGUCAA (ssRNA, 2'-F pyrimidines (U, C); purines 2'-OH) [SEQ ID NO: 33] was tested, and the IC50 [5] was 0.21 nM.

B6: SEQ ID NO: 33(9) (mixed)
RNA: AUGAUCGGACAUAACUAAUUAGGGGUGUCAA
modifications: idT-A(M)U(M)G(M)A(M)U(F)C(F)G(M)G(M)A(M)C(M)A(M)U(M)AAC(M)U(F)A(M)A(M)U(M)U(M)A(M)G(M)G(M)G(M)G(M)tG(M)U(M)C(M)A(M)A(M)-idT (F=2'-F, M=2'-OMe)
Binder B6 has an IC50 [6] of 1.35 nM.

B7: SEQ ID NO: 4 (ssRNA)
RNA: GGGAGCAGGAGAGAGGUCAGAUGUAACUCUAUUGAGGGGCAUCAGCACAGUAGCCUAUGCGUGCUAGUGUGA
modifications: 2'-F pyrimidines (U, C); purines 2'-OH
With B7 the IC50 [4] was 10.8 nM.

B8: SEQ ID NO: 22 (ssRNA)
RNA: GGCAGAUGAUCGGACAUAACAGUUAGAUAGAGUUAAAAACUGGGGUGUCAA
modifications: 2'-F pyrimidines (inferred)
For B8, the IC50 [2] was 5 nM.

B9: SEQ ID NO: 2 (ssRNA)
RNA: GGGAGCAGGAGAGAGGUCAGAUGAUCGGACAUAACAUUGUUGGGGUGUCAAGGCCUAUGCGUGCUAGUGUGA
modifications: 2'-F pyrimidines (U, C); purines 2'-OH
Binder B9 has an IC50 [7] of 10 nM and an IC50 [4] of 31 nM.

Reference: patent US20210002644, “ANTI-CHYMASE APTAMER AND USE FOR SAME” (RIBOMIC INC., published 2021)
